Target: taxol-stabilized microtubules
Assay: co-sedimentation

Substance “p150^glued MBD-(His)6 after incubation with aurora A protein kinase and ATP (domain or fragment)” has a fold weaker affinity against MBD not phosphorylated by aurora A of 5 fold.

Source: PMC2872913
